Laboratory results: the supplement of paper PMC9233669
Fewer inactive variants are shown than the library holds.

Columns and labels:
biotinyl-Phe-oxazolone = test: self-aminoacylation, catalytic enhancement (BFO) (fold over background); higher = more active; k-Seq, kA / k0A0; sequences stand for … in GGGAAUGGAUCCACAUCUACGAAUUC…UUCACUGCAGACUUGACGAAGCUG
In short: (§1)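 Each biotinyl-aminoacyl-oxazolone, at 2–1250 μM, was incubated with mutagenized RNA pools (0.43 μM) carrying a 21-nt variable region. The 50 μL reactions contained HEPES/NaCl/KCl/MgCl2/CaCl2 buffer with 5% acetonitrile at pH 6.9–7.0 and ran for 90 minutes at room temperature. After streptavidin capture, RNA was measured by qPCR in triplicate and by Illumina sequencing, and catalytic enhancement was calculated as median kA over the uncatalyzed rate from a pseudo-first-order fit of per-sequence fraction reacted.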

biotinyl-Ile-oxazolone = test: self-aminoacylation, catalytic enhancement (BIO) (fold over background); higher = more active; k-Seq, kA / k0A0; sequences stand for … in GGGAAUGGAUCCACAUCUACGAAUUC…UUCACUGCAGACUUGACGAAGCUG
In short: as §1

biotinyl-Met-oxazolone = test: self-aminoacylation, catalytic enhancement (BMO) (fold over background); higher = more active; k-Seq, kA / k0A0; sequences stand for … in GGGAAUGGAUCCACAUCUACGAAUUC…UUCACUGCAGACUUGACGAAGCUG
In short: as §1

biotinyl-Val-oxazolone = test: self-aminoacylation, catalytic enhancement (BVO) (fold over background); higher = more active; k-Seq, kA / k0A0; sequences stand for … in GGGAAUGGAUCCACAUCUACGAAUUC…UUCACUGCAGACUUGACGAAGCUG
In short: as §1

biotinyl-Leu-oxazolone = test: self-aminoacylation, catalytic enhancement (BLO) (fold over background); higher = more active; k-Seq, kA / k0A0; sequences stand for … in GGGAAUGGAUCCACAUCUACGAAUUC…UUCACUGCAGACUUGACGAAGCUG
In short: as §1

biotinyl-Trp-oxazolone = test: self-aminoacylation, catalytic enhancement (BWO) (fold over background); higher = more active; k-Seq, kA / k0A0; sequences stand for … in GGGAAUGGAUCCACAUCUACGAAUUC…UUCACUGCAGACUUGACGAAGCUG
In short: as §1

Sequence | self-aminoacylation (biotinyl-Phe-oxazolone) | self-aminoacylation (biotinyl-Ile-oxazolone) | self-aminoacylation (biotinyl-Met-oxazolone) | self-aminoacylation (biotinyl-Val-oxazolone) | self-aminoacylation (biotinyl-Leu-oxazolone) | self-aminoacylation (biotinyl-Trp-oxazolone)
AUGACCCUCGUCAUCGAGUGA [Fam2.1 aminoacylation ribozyme variant] | 14.7 | 2.05 | 3.35 | 2.06 | 3.43 | 3.73
AUUACCCUUGCCAUCGAGUGA [Fam2.1 aminoacylation ribozyme variant] | 35.2 | 3.09 | 6.18 | 3.18 | 5.63 | 7.05
AUACACCUAGGUCAUCGCGUG [Fam2.2 aminoacylation ribozyme variant] | 69.7 | 4.68 | 8.65 | 5.01 | 10.4 | 8.07
AUUCACCUGGGUCAUCCGGUG [Fam2.2 aminoacylation ribozyme variant] | 75.6 | 7.06 | 11.2 | 7.4 | 13.3 | 9.13
AUUCACCAAGGUCAUCGAGUG [Fam2.2 aminoacylation ribozyme variant] | 14.4 | 2.27 | 4.1 | 2.23 | 4.52 | 2.57
ACACACUUAAAGCAAUCGGUC [Fam1B.1 aminoacylation ribozyme variant] | 1.23 | 1.08 | 0.917 | 1.11 | 0.923 | 0.971
AUUUACCUAAGUCAUCGGGUG [Fam2.2 aminoacylation ribozyme variant] | 64.2 | 4.85 | 7.89 | 4.66 | 11.1 | 7.89
CCACUUCAAACAAUCGGUGUG [Fam1A.1 aminoacylation ribozyme variant] | 12.5 | 1.13 | 1.79 | 1.33 | 2.34 | 9.94
CUACUUCGAACAUUCGGUCUG [Fam1A.1 aminoacylation ribozyme variant] | 0.576 | 1.29 | 1.05 | 1.32 | 1.18 | 0.84
AUUACCCUGGACAUCGAUUGA [Fam2.1 aminoacylation ribozyme variant] | 0.447 | 0.804 | 0.785 | 0.863 | 0.831 | 0.675
AUUCACCUAGGUUAUUGGGUG [Fam2.2 aminoacylation ribozyme variant] | 45 | 3.48 | 5.84 | 3.15 | 7.19 | 6.1
CUACUCCAAACUAUCGGUCUG [Fam1A.1 aminoacylation ribozyme variant] | 0.747 | 0.926 | 0.806 | 1.07 | 0.872 | 0.822
CUACUUCGAACAAUCCGUCUG [Fam1A.1 aminoacylation ribozyme variant] | 0.35 | 0.636 | 0.738 | 0.745 | 0.587 | 0.588
ACUAACCUGGUCAUCGAGUGA [Fam2.1 aminoacylation ribozyme variant] | 2.68 | 3.19 | 4.84 | 2.91 | 3.83 | 5.42
AUUCUCCAAGGUCAUCGGGUG [Fam2.2 aminoacylation ribozyme variant] | 102 | 6.8 | 11.8 | 7.99 | 15.6 | 10.7
AUUCACCUAUGUCAUCGCGUG [Fam2.2 aminoacylation ribozyme variant] | 65.3 | 4.86 | 8.26 | 4.89 | 10.4 | 7.34
CUACUGCAAACAAUCGUUCUG [Fam1A.1 aminoacylation ribozyme variant] | 0.732 | 0.702 | 0.818 | 0.735 | 0.647 | 0.574
CUUCUUCAAACAAUCGGUCUU [Fam1A.1 aminoacylation ribozyme variant] | 13.4 | 0.878 | 0.814 | 0.925 | 0.997 | 7.08
UUUCACCUAGGUCAGCGGGUG [Fam2.2 aminoacylation ribozyme variant] | 24.2 | 3.75 | 4.92 | 3.92 | 5.53 | 5.12
CUACUUCAAACAUUCGUUCUG [Fam1A.1 aminoacylation ribozyme variant] | 0.513 | 0.713 | 0.669 | 0.706 | 0.659 | 0.504
AUUACCCUGGUCAUCGAGGGA [Fam2.1 aminoacylation ribozyme variant] | 9.56 | 2.71 | 5.93 | 2.99 | 5.66 | 5.46
CCACACGUCAAACAAUCGGUC [Fam1B.1 aminoacylation ribozyme variant] | 1.2 | 1.21 | 1.2 | 1.34 | 1.45 | 1.83
AUUCACUUAGGUCAUUGGGUG [Fam2.2 aminoacylation ribozyme variant] | 25.2 | 2.3 | 3.64 | 2.39 | 4.48 | 3.76
CCAGAAUUCAAGCAAUCGGUC [Fam1B.1 aminoacylation ribozyme variant] | 2.26 | 1.91 | 1.65 | 1.6 | 2.3 | 1.81
AAGUGUGCUACUAGUCGCAAG [Fam3.1 aminoacylation ribozyme variant] | 1.71 | 1.29 | 1.33 | 1.04 | 0.938 | 1.41
CUACUUCAAAAAGUCGGUCUG [Fam1A.1 aminoacylation ribozyme variant] | 0.598 | 0.876 | 0.856 | 0.773 | 0.779 | 0.579

Sequence | self-aminoacylation (biotinyl-Phe-oxazolone) | self-aminoacylation (biotinyl-Ile-oxazolone) | self-aminoacylation (biotinyl-Met-oxazolone) | self-aminoacylation (biotinyl-Val-oxazolone) | self-aminoacylation (biotinyl-Leu-oxazolone) | self-aminoacylation (biotinyl-Trp-oxazolone)
AAGUUUGCUAAUAAUCGCAUG [Fam3.1 aminoacylation ribozyme variant] | 1.21 | 0.866 | 1.05 | 0.926 | 0.932 | 1.15
GUUCACCUAGGUAAUCGGGUG [Fam2.2 aminoacylation ribozyme variant] | 9.25 | 2.38 | 2.74 | 2.12 | 2.92 | 3.83
CAGCUUGCUAAUAGUCGCAAG [Fam3.1 aminoacylation ribozyme variant] | 2.54 | 1.82 | 1.72 | 1.86 | 1.89 | 1.72
AUGACCUUGGUCAUCGAGUGA [Fam2.1 aminoacylation ribozyme variant] | 22.3 | 3.22 | 5.23 | 3.1 | 5.27 | 6.29
AUGUUUGCUAAUAGUCGCCAG [Fam3.1 aminoacylation ribozyme variant] | 1.53 | 1.26 | 1.37 | 1.29 | 1.51 | 1.76
CCACACUUCGAGCAAUCGGCC [Fam1B.1 aminoacylation ribozyme variant] | 7.13 | 1.64 | 1.61 | 2.77 | 1.94 | 2.11
AUUACCCUGCUGAUCGAGUGA [Fam2.1 aminoacylation ribozyme variant] | 10.4 | 1.93 | 2.68 | 1.67 | 2.87 | 2.77
CUACCUCAAACAAUCAGUCUG [Fam1A.1 aminoacylation ribozyme variant] | 1.74 | 0.649 | 0.588 | 0.647 | 0.671 | 0.702
AUUAGCCUGGACAUCGAGUGA [Fam2.1 aminoacylation ribozyme variant] | 45.3 | 3.91 | 8.78 | 3.53 | 9.56 | 8.52
AUUCACCUAGAUCAUCGGGGG [Fam2.2 aminoacylation ribozyme variant] | 8.71 | 1.79 | 2.29 | 1.91 | 2.08 | 2.13
CAACUUCAAACAACCGGUCUG [Fam1A.1 aminoacylation ribozyme variant] | 3.54 | 1.24 | 1.11 | 1.32 | 1.14 | 1.75
AUUACCCUGGUCAUUGAGGGA [Fam2.1 aminoacylation ribozyme variant] | 1.13 | 1.23 | 1.25 | 1.51 | 1.25 | 2.06
AUAACCCUGUUCAUCGAGUGA [Fam2.1 aminoacylation ribozyme variant] | 12.6 | 2.21 | 3.8 | 2.18 | 3.97 | 4.29
CUACUUCAAACAUUCGGUCUU [Fam1A.1 aminoacylation ribozyme variant] | 0.774 | 1.15 | 1.38 | 1.11 | 1.03 | 0.767
AUUGCCCUGGUCAUCGAGUUA [Fam2.1 aminoacylation ribozyme variant] | 8.37 | 2.31 | 4.84 | 2.64 | 5.24 | 4.44
CUACUCCAAACAAGCGGUCUG [Fam1A.1 aminoacylation ribozyme variant] | 2.15 | 1.2 | 1.13 | 1.14 | 0.802 | 0.584
CUACUUCAAACAAUCGGCCUG [Fam1A.1 aminoacylation ribozyme variant] | 85.3 | 1.69 | 1.87 | 1.78 | 2.86 | 48.1
AUUACCCCGGUCAUGGAGUGA [Fam2.1 aminoacylation ribozyme variant] | 22.6 | 2.92 | 4.97 | 3.07 | 5.28 | 6.2
AUUCACCUAGGACAUCGGAUG [Fam2.2 aminoacylation ribozyme variant] | 0.553 | 0.988 | 1.06 | 1.29 | 0.999 | 0.529
AUUAUCCUGUUCAUCGAGUGA [Fam2.1 aminoacylation ribozyme variant] | 22.6 | 2.87 | 5.98 | 3 | 6 | 7.47
AUUACCCUGGACAUCCAGUGA [Fam2.1 aminoacylation ribozyme variant] | 15.9 | 2.61 | 3.32 | 2.51 | 3.82 | 4.13
CUACCUCAAACAAUUGGUCUG [Fam1A.1 aminoacylation ribozyme variant] | 0.81 | 1.08 | 1.08 | 1.04 | 0.824 | 0.733
AUUAACCUAGGUCAUAGGGUG [Fam2.2 aminoacylation ribozyme variant] | 1.19 | 1.29 | 1.41 | 1.36 | 1.74 | 2.08
CCGCACUUCAACCAAUCGGUC [Fam1B.1 aminoacylation ribozyme variant] | 148 | 2.09 | 2.05 | 2.38 | 3.41 | 67.5
AUGACCCGGGUCAUCGAGUGA [Fam2.1 aminoacylation ribozyme variant] | 46.3 | 3.9 | 6.73 | 3.55 | 7.47 | 6.53
